Read-outs that look alike come from different tables or passages of the source.
Key:
Assay in all cases: SPR
[1] = molecular target: T1, C-terminal domain of Bundibugyo Ebola virus Nucleoprotein (NP^Ct)
[2] = molecular target: T2, C-terminal domain of Tai Forest Ebola virus Nucleoprotein (NP^Ct)
[3] = molecular target: T3, C-terminal domain of Zaire Ebola virus Nucleoprotein (NP^Ct) (UniProt P18272 641-739)
[4] = molecular target: C-terminal domain of Sudan Ebola virus Nucleoprotein (NP^Ct) (UniProt Q9QP77 641-738)
[5] = molecular target: T1, C-terminal domain of Bundibugyo Ebola …; remark: listed apart in the source
[6] = molecular target: T2, C-terminal domain of Tai Forest Ebola …; remark: listed apart in the source
[7] = molecular target: C-terminal domain of Reston Ebola virus Nucleoprotein (NP^Ct) (UniProt Q8JPY1 641-739)
[8] = molecular target: T3, C-terminal domain of Zaire Ebola virus …; remark: listed apart in the source

B1: Fab 6 (Fab, V domains shown)
VH: EVQLVESGGGLVQPGGSLRLSCAASGFNVYYYYIHWVRQAPGKGLEWVASISPYYGYTSSYADSVKGRFTISADTSKNTAYLQMNSLRAEDTAVYYCARWSYDQSMSYKSGMDYWGQGTLVTVSS
VL: DIQMTQSPSSLSASVGDRVTITCRASQSVSSAVAWYQQKPGKAPKLLIYSASSLYSGVPSRFSGSRSGTDFTLTISSLQPEDFATYYCQQYSYSLVTFGQGTKVEIKR
Kd [1]: 3.95 nM
Kd [2]: 4.68 nM
Kd [3]: 0.687 nM

B2: Fab 20 (Fab, V domains shown)
VH: EVQLVESGGGLVQPGGSLRLSCAASGFNISYSSIHWVRQAPGKGLEWVASIYSYSGYTSYADSVKGRFTISADTSKNTAYLQMNSLRAEDTAVYYCARSYWYHVGSWHYTGMDYWGQGTLVTVSS
VL: DIQMTQSPSSLSASVGDRVTITCRASQSVSSAVAWYQQKPGKAPKLLIYSASSLYSGVPSRFSGSRSGTDFTLTISSLQPEDFATYYCQQSSSSLITFGQGTKVEIKR
Kd [4]: 20.3 nM
Kd [5]: 16.6 nM
Kd [6]: 3.05 nM
Kd [7]: 11.7 nM
Kd [8]: 4.14 nM
